Measured values as given in publication PMC10790770.

Tests used:
Assay in all cases: cross-linking; cysteine cross-linking with CuCl2 in E. coli co-producing the T2SS lacking pulF (pCHAP8252) and PulF or PulFΔN Cys variants (pCHAP8259 derivatives); total extracts on 4%–15% SDS gradient gels, blot with anti-PulFC
[1] = biological target: PulFΔN^Y168C-E370C (K. oxytoca) (UniProt P15745)
[2] = biological target: PulFΔN^V171C-P371C (K. oxytoca) (UniProt P15745)
[3] = biological target: PulF^V171C-P371C (K. oxytoca) (UniProt P15745)
[4] = biological target: PulF^Y168C-E370C (K. oxytoca) (UniProt P15745)

## PulFΔN^Y168C-E370C (from UniProt P15745 35-381) (domain or fragment)
[1]
  stoichiometry N: 3

## PulFΔN^V171C-P371C (from UniProt P15745 35-381) (domain or fragment)
[2]
  stoichiometry N: 3

## PulF^V171C-P371C (from UniProt P15745 1-381) (natural protein)
[3]
  stoichiometry N: 3

## PulF^Y168C-E370C (from UniProt P15745 1-381) (natural protein)
[4]
  stoichiometry N: 3
